Reference: US20140328939A1, “METHOD FOR PREPARING BIOCOMPATIBLE SMALL INTESTINAL MUCOSA HYDROGEL CAPABLE OF CONTROLLING IN-VIVO DEGRADATION PERIOD” (AJOU UNIVERSITY INDUSTRY-ACADEMIC COOPERATION FOUNDATION, priority 2011, published 2014)

Test: In-vivo drug release test (FITC-labeled albumin)
Settings: 0.5 mL subcutaneous, SD rats; FITC-BSA 1 mg/mL
Protocol: The prepared small intestinal submucosa powder was dissolved in phosphate buffered saline to 10, 15 and 20 wt %, respectively, to prepare homogeneous solutions. Then, FITC-labeled albumin (FITC-BSA) was added to a concentration of 1 mg/mL. 0.5 mL of the albumin-containing small intestine submucosa solutions were subcutaneously injected to nine SD rats (male, 8 weeks old, 350-380 g) using a syringe (21 G, 1-cc needle). For comparison, 0.5 mL of a solution containing FITC-labeled albumin of the same concentration was subcutaneously injected to three rats. When only albumin was subcutaneously injected, the drug was not released any more after 1 day. In contrast, in case of the albumin-containing small intestinal submucosa hydrogel, the drug was continuously released for about 9 days.

In the case of “albumin: FITC-labeled albumin (FITC-BSA) solution, model drug injected alone for comparison”, the “duration of drug release (albumin concentration in blood)” value is reported as ≤ 1 days.
